Measured values from patent US20040110688A1 (SAINT LOUIS UNIVERSITY, published 2004).

These binders were tested against T1, factor VIIIa (human, UniProt P00451 20-2351) (assay: peptide competition assay: inhibition of factor X activation by IXa with VIIIa and phospholipid).
T1 sequence (looked up): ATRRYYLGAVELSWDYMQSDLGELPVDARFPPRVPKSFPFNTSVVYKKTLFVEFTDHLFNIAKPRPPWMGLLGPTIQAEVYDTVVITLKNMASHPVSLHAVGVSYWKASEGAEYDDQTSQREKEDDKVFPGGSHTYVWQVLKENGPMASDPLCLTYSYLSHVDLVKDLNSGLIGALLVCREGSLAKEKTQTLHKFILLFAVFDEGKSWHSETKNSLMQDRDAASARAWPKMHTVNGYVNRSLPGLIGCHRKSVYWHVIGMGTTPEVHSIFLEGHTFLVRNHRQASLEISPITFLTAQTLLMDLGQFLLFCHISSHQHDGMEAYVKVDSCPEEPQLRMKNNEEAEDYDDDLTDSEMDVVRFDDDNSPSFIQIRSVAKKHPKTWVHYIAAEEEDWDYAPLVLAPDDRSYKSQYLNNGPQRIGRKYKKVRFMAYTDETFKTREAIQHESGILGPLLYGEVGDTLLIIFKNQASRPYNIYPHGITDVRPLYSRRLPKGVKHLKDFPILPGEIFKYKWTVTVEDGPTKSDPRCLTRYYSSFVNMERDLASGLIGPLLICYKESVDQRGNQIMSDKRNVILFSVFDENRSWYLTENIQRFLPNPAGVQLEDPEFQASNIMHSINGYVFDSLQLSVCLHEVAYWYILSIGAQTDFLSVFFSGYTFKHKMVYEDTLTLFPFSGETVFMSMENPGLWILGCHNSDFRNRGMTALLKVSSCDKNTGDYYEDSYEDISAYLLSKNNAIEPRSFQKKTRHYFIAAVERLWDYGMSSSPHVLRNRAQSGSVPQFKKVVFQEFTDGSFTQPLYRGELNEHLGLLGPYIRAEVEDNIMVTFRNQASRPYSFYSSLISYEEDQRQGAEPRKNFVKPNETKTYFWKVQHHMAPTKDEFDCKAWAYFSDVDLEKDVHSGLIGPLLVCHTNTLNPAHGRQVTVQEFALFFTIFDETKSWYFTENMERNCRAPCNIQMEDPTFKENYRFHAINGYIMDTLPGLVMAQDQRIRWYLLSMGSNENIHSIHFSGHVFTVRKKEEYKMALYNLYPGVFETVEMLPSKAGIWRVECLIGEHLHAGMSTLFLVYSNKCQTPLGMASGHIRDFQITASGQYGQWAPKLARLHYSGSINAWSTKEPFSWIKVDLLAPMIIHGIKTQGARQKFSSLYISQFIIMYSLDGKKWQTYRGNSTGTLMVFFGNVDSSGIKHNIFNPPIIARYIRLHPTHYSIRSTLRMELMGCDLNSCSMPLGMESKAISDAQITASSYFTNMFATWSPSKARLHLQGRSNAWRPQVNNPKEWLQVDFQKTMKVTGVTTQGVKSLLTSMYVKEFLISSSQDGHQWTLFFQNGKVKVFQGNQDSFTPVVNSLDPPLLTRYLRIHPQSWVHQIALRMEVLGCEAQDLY
Description: Each reaction was incubated for either 30, 60, 90, or 120 seconds and the reaction was stopped by adding 1.5 μL of 0.5 M EDTA and placed on ice. Forty μL of each reaction was added to 100 μL of TBS/BSA in a 96 well microtiter plate and S-2222 (Bz-Ile-Glu(γ-OR)-Gly-Arg-p-nitroanilide) was added to a final concentration of 100 μM.

First: DRAT [P-4488 SEQ ID NO: 2 (DRAT)]
Second: LVDRAT [P-4351 SEQ ID NO: 6 (LVDRAT)]
The IC50 of the first is 130-fold higher: 89.8 µM for the first, 0.7 µM for the second.

LVDQAT [P-4353 SEQ ID NO: 8 (LVDQAT)] and LVYRAT [P-4352 SEQ ID NO: 7 (LVYRAT)] are within 1.5-fold of each other in IC50: 9.3 µM for the first, 13.2 µM for the second.

DGDQCESNPCLNGGSCKDDINSYECWCPFGFEGKNCELD (other, UniProt P00740 93-131, looked up, domain: EGF1 Domain) [EGF1 Domain] was tested, and the IC50 was 12 µM.

These binders were tested against T1, factor VIIIa (assay: Kd from the peptide competition assay (factor X activation by IXa with VIIIa and phospholipid)).

Going from DRAT [P-4488 SEQ ID NO: 2 (DRAT)] to LVDRAT [P-4351 SEQ ID NO: 6 (LVDRAT)], the Kd falls from 44.9 µM to 0.35 µM (130-fold).

LVDQAT [P-4353 SEQ ID NO: 8 (LVDQAT)] and LVYRAT [P-4352 SEQ ID NO: 7 (LVYRAT)] are within 1.5-fold of each other in Kd: 4.7 µM for the first, 6.6 µM for the second.

Going from TKVSRYVN [P-4354 (TKVSRYVN)] to DGDQCESNPCLNGGSCKDDINSYECWCPFGFEGKNCELD (other, UniProt P00740 93-131, looked up, domain: EGF1 Domain) [EGF1 Domain], the Kd rises from 1 µM to 6 µM (6-fold).
